The results in this text go back to the RNAGym collection of RNA variant scans (doi:10.7554/elife.80360).

B1: Hammerhead Ribozyme (parent)
chain: ACCGGAUGUGCUUUCCGGUCUGAUGAGUCCGUGAGGACGAAACAG

The variants in this data set derive from B1. The experiment in a line: self-cleavage, relative activity (ratio to wild type); higher = more cleavage; co-transcriptional.
Turning to ACCGGAUGUGCUUUCCGGUAUGAUGAGUCCGGGAGGACGAAACAG [C20A U32G], the self-cleavage came out at 0.255. ACCGGAUGUGCUUUCCGGUUUGAUGAGUCCGUGUGGACGAAACAG [C20U A34U]: the self-cleavage came out at 0.356. As to ACCGGAUGUGCUUUCCGGUUUGAUGAGUCCGUGGGGACGAAACAG [C20U A34G], the self-cleavage is 0.407.

Regarding ACCGGAUGUGCUUUCCGGUUUGAUGAGUCCGUGCGGACGAAACAG [C20U A34C], the self-cleavage came out at 0.369. With ACCGGAUGUGCUUUCCGGUGUGAUGAGUCCAUGAGGACGAAACAG [C20G G31A], the self-cleavage was found to be 0.319. As for ACCGGAUGUGCUUUCCGGUGUGAUGAGUCCCUGAGGACGAAACAG [C20G G31C], the self-cleavage was 0.321. Turning to ACCGGAUGUGCUUUCCGGUGUGAUGAGUCCUUGAGGACGAAACAG [C20G G31U], the self-cleavage stood at 0.356. ACCGGAUGUGCUUUCCGGUGUGAUGAGUCCGUGAGGACGAAACCG [C20G A44C]: the self-cleavage was 0.278. On to ACCGGAUGUGCUUUCCGGUGUGAUGAGUCCGUGAGGACGAAACGG [C20G A44G], for which the self-cleavage worked out at 0.629. To ACCGGAUGUGCUUUCCGGUGUGAUGAGUCCGUGAGGACGAAACUG [C20G A44U] belongs 0.309.

Consider ACCGGAUGUGCUUUCCGGUGUGAUGAGUCCGUGAGGACGAAUCAG [C20G A42U], for which the self-cleavage was found to be 0.313.

For the variant ACCGGAUGUGCUUUCCGGUGUGAUGAGUCCGUGAGGACGAACCAG [C20G A42C], the self-cleavage was 0.307. To ACCGGAUGUGCUUUCCGGUGUGAUGAGUCCGUGAGGACGAAGCAG [C20G A42G] belongs 0.324; to ACCGGAUGUGCUUUCCGGUUUGUUGAGUCCGUGAGGACGAAACAG [C20U A23U], 0.279; to ACCGGAUGUGCUUUCCGGUUUGGUGAGUCCGUGAGGACGAAACAG [C20U A23G], 0.356. In the case of ACCGGAUGUGCUUUCCGGUUUGCUGAGUCCGUGAGGACGAAACAG [C20U A23C], the self-cleavage is 0.353.

For the variant ACCGGAUGUGCUUUCCGGUGUGAUGAGUCCGGGAGGACGAAACAG [C20G U32G], the self-cleavage was determined as 0.28. ACCGGAUGUGCUUUCCGGUGUGAUGAGUCCGAGAGGACGAAACAG [C20G U32A]: the self-cleavage is 0.305. As to ACCGGAUGUGCUUUCCGGUGUGAUGAGUCCGCGAGGACGAAACAG [C20G U32C], the self-cleavage amounted to 0.325. In the case of ACCGGAUGUGCUUUCCGGUUUGAUGAGUCCGUGAGGACGAAACGG [C20U A44G], the self-cleavage is 0.962.

Consider ACCGGAUGUGCUUUCCGGUUUGAUGAGUCCGUGAGGACGAAACUG [C20U A44U], for which the self-cleavage was 0.324. Take ACCGGAUGUGCUUUCCGGUUUGAUGAGUCCGUGAGGACGAAACCG [C20U A44C]: the self-cleavage was 0.376. In the case of ACCGGAUGUGCUUUCCGGUGUGAUGAGUCCGUGAGAACGAAACAG [C20G G36A], the self-cleavage came to 0.31. To ACCGGAUGUGCUUUCCGGUGUGAUGAGUCCGUGAGUACGAAACAG [C20G G36U] belongs 0.305; to ACCGGAUGUGCUUUCCGGUGUGAUGAGUCCGUGAGCACGAAACAG [C20G G36C], 0.274. Consider ACCGGAUGUGCUUUCCGGUGUGAUGAGUCCGUGAGGACGUAACAG [C20G A40U], for which the self-cleavage was determined as 0.355. To ACCGGAUGUGCUUUCCGGUGUGAUGAGUCCGUGAGGACGGAACAG [C20G A40G] belongs 0.324; to ACCGGAUGUGCUUUCCGGUGUGAUGAGUCCGUGAGGACGCAACAG [C20G A40C], 0.322; to ACCGGAUGUGCUUUCCGGUGUGAUGUGUCCGUGAGGACGAAACAG [C20G A26U], 0.29.

As for ACCGGAUGUGCUUUCCGGUGUGAUGGGUCCGUGAGGACGAAACAG [C20G A26G], the self-cleavage is 0.302. On to ACCGGAUGUGCUUUCCGGUGUGAUGCGUCCGUGAGGACGAAACAG [C20G A26C], for which the self-cleavage amounted to 0.404. To ACCGGAUGUGCUUUCCGGUGUGAUGAGUCGGUGAGGACGAAACAG [C20G C30G] belongs 0.37. Turning to ACCGGAUGUGCUUUCCGGUGUGAUGAGUCUGUGAGGACGAAACAG [C20G C30U], the self-cleavage is 0.255. To ACCGGAUGUGCUUUCCGGUGUGAUGAGUCAGUGAGGACGAAACAG [C20G C30A] belongs 0.335. Turning to ACCGGAUGUGCUUUCCGGUGGGAUGAGUCCGUGAGGACGAAACAG [C20G U21G], the self-cleavage came out at 0.376. Consider ACCGGAUGUGCUUUCCGGUGAGAUGAGUCCGUGAGGACGAAACAG [C20G U21A], for which the self-cleavage turned out to be 0.286. With ACCGGAUGUGCUUUCCGGUGCGAUGAGUCCGUGAGGACGAAACAG [C20G U21C], the self-cleavage was 0.305.

On to ACCGGAUGUGCUUUCCGGUUUGAUGUGUCCGUGAGGACGAAACAG [C20U A26U], for which the self-cleavage was 0.411. Regarding ACCGGAUGUGCUUUCCGGUUUGAUGGGUCCGUGAGGACGAAACAG [C20U A26G], the self-cleavage was found to be 0.262.

In the case of ACCGGAUGUGCUUUCCGGUUUGAUGCGUCCGUGAGGACGAAACAG [C20U A26C], the self-cleavage was determined as 0.321.

As to ACCGGAUGUGCUUUCCGGUGUGAUGAGUCCGUGAGGCCGAAACAG [C20G A37C], the self-cleavage is 0.298. For ACCGGAUGUGCUUUCCGGUGUGAUGAGUCCGUGAGGUCGAAACAG [C20G A37U], the self-cleavage worked out at 0.272. Turning to ACCGGAUGUGCUUUCCGGUGUGAUGAGUCCGUGAGGGCGAAACAG [C20G A37G], the self-cleavage turned out to be 0.3. As to ACCGGAUGUGCUUUCCGGUAUGAGGAGUCCGUGAGGACGAAACAG [C20A U24G], the self-cleavage turned out to be 0.594.

Turning to ACCGGAUGUGCUUUCCGGUAUGAAGAGUCCGUGAGGACGAAACAG [C20A U24A], the self-cleavage amounted to 0.764. As for ACCGGAUGUGCUUUCCGGUAUGACGAGUCCGUGAGGACGAAACAG [C20A U24C], the self-cleavage turned out to be 0.368. For ACCGGAUGUGCUUUCCGGUUUGAUGAGUACGUGAGGACGAAACAG [C20U C29A] the value was 0.296.

On to ACCGGAUGUGCUUUCCGGUUUGAUGAGUGCGUGAGGACGAAACAG [C20U C29G], for which the self-cleavage came out at 0.378. As to ACCGGAUGUGCUUUCCGGUGUGAUGAGUCCGUGAGGACGAAAUAG [C20G C43U], the self-cleavage worked out at 0.298. As to ACCGGAUGUGCUUUCCGGUGUGAUGAGUCCGUGAGGACGAAAAAG [C20G C43A], the self-cleavage worked out at 0.353. For ACCGGAUGUGCUUUCCGGUGUGAUGAGUCCGUGAGGACGAAAGAG [C20G C43G], the self-cleavage is 0.432. For ACCGGAUGUGCUUUCCGGUUUGAUGAGUCCGUGAGGACGUAACAG [C20U A40U] the value was 0.246. With ACCGGAUGUGCUUUCCGGUUUGAUGAGUCCGUGAGGACGGAACAG [C20U A40G], the self-cleavage stood at 0.41. In the case of ACCGGAUGUGCUUUCCGGUUUGAUGAGUCCGUGAGGACGCAACAG [C20U A40C], the self-cleavage came to 0.407. Regarding ACCGGAUGUGCUUUCCGGUUUGAUGAGUCCGUGAGGUCGAAACAG [C20U A37U], the self-cleavage is 0.403. For the variant ACCGGAUGUGCUUUCCGGUUUGAUGAGUCCGUGAGGCCGAAACAG [C20U A37C], the self-cleavage was 0.549. For ACCGGAUGUGCUUUCCGGUUUGAUGAGUCCGUGAGGGCGAAACAG [C20U A37G] the value was 0.565.
